Measured values taken from publication PMC9541865, “Clinical Pharmacology of Insulin Aspart Biosimilar GP40071: Pharmacokinetic/Pharmacodynamic Comparability in Hyperinsulinemic Euglycemic Clamp Procedure” (Clinical Pharmacology in Drug Development, 2022).
Where two headings read alike, the source gives them in different places.

Experiments:
healthy male volunteers [1] = test: Pharmacodynamics (glucose infusion rate) in hyperinsulinemic euglycemic clamp (HEC); assay type: in vivo, human; details: N = 26, single s.c. 0.3 IU/kg, arithmetic mean (SD); for AUCGIR0‐t / GIRmax: 8-h HEC
Experimental: The PD effect of insulin aspart was evaluated using the manual euglycemic clamp technique, as described previously[7] with adaptations described below.
Before the clamp procedure. Subjects were hospitalized approximately 12 hours before each drug administration. After the baseline physical examination, vital signs measurements, alcohol breath test, and urine drug testing were performed to confirm compliance with the study restrictions. All participants were given a standardized light meal in the evening before the clamp. Subjects fasted for at least 10 hours before the dosing and remained fasted until the end of the clamp.
During the clamp procedure. The next morning HEC was performed.
Pharmacodynamics. As described above, blood glucose values determined every 5 minutes during HEC were used to measure and manually adjust GIR.

healthy male volunteers [2] = test: Safety and tolerability (adverse events) in HEC study; assay type: in vivo, human; details: single s.c. 0.3 IU/kg, N = 26; for Number of adverse events (AEs): all transitory and mild, most probably related to the HEC procedure; for Tolerability of single dose: healthy male volunteers
Experimental: Safety evaluation. The safety and tolerability of both studied drugs were also assessed. Throughout the trial, adverse events (AEs) were monitored and all participants underwent physical examination, vital signs assessment, electrocardiogram (ECG) recording, and laboratory blood and urine testing.

[3] = human, in vivo, sc
Experimental: (§1) This was a phase 1, randomized, double‐blind, two‐center, two‐treatment, single‐dose, two‐period, crossover, 8‐hour HEC study in healthy subjects. The study was conducted simultaneously in 2018 at two clinical sites (Almazov National Medical Research Center, Saint Petersburg, Russia, and Endocrinology Research Centre, Moscow).
(§2) NovoRapid® Penfill® (Novo‐Asp), as a solution for injection (100 IU/mL), by NovoNordisk, Denmark was used as a reference drug. Both drugs were administered subcutaneously into the abdomen using a BD Micro‐Fine 0.5‐mL insulin syringe with an 8‐mm needle. In this study, the dose of insulin aspart was 0.3 IU/kg for each formulation.
(§3) The next morning HEC was performed. Subjects remained in a supine position for the entire procedure. The time of dosing of the investigated insulins was defined as a zero point. Plasma glucose levels were measured to confirm euglycemia state 60 and 30 minutes prior to the dosing. The target value for blood glucose concentrations during the clamp procedure was defined as 90 mg/100 mL and the acceptable glycemic range in this study was set as 80–100 mg/100 mL. After subcutaneous injection of the investigated insulin, intravenous 20% glucose infusion was started once the baseline plasma glucose level decreased by more than 5 mg/100 mL. The glucose infusion rate (GIR) was controlled and adjusted manually using an infusion pump (Infusomat fmS, B. Braun Melsungen AG, Germany) to maintain plasma glucose concentrations of 80–100 mg/100 mL. HEC lasted 8 hours, and during the entire procedure glycemia was measured using a glucose analyzer (StatStrip, Nova Biomedical, USA) and GIR was adjusted accordingly every 5 minutes. The GIR was documented throughout the procedure and was used to reflect the activity of insulin. Glucose infusion could be discontinued earlier if GIR equaled 0 mg/kg/min at three consecutive measurements 6 hours or more after dosing. Blood samples for PK assessment were obtained for 8 hours postdose.
(§4) Pharmacokinetics. During each HEC 21 samples (each 9 mL of venous blood) were collected from all participants at regular time intervals to assess the concentrations of insulin aspart and C‐peptide: 60, 30, 0 minutes predose and 10, 20, 30, 40, 50, 60, 75, 90, 105, 120, 135, 150, 165, 240, 300, 360, 420, 480 minutes postdose. To obtain plasma samples for the bioanalytical part the blood samples were centrifuged at 3000 rpm for 15 minutes, then the supernatant was transferred into clean tubes. Insulin determination in plasma was performed by a validated enzyme immunoassay (EIA) method using a Personal Lab (Adaltis S.r.l., Italy) analyzer. A Mercodia Iso‐Insulin ELISA kit (Mercodia, Sweden) was used to measure total endogenous human insulin and insulin aspart concentrations and then a Mercodia Insulin ELISA kit (Mercodia) was used to quantify specifically the endogenous human insulin concentration. […] The validated lower (LLOQ) and upper (ULOQ) levels of quantification for total insulin assay were 10.00 and 300.00 μIU/mL, and for human insulin assay they were 10.00 and 150.00 μIU/mL.

[4] = Pharmacokinetics of insulin aspart in plasma during hyperinsulinemic euglycemic clamp (HEC); details: healthy male volunteers, N = 26, arithmetic mean (SD); for AUCins.0‐t: single s.c. 0.3 IU/kg into abdomen, ELISA double measurement; for AUCins.0‐t / Cins.max: 8-h HEC, plasma; for Cins.max: ELISA; for AUCins.0‐∞: extrapolated to infinity
Experimental: as §1, §2, §3, §4

Substance | AUCGIR0‐t (healthy male volunteers [1]) | GIRmax (healthy male volunteers [1]) | tGIRlag (onset of action) (healthy male volunteers [1]) | tGIRmax (time to reach GIRmax) (healthy male volunteers [1]) | Cases of hyperbilirubinemia (healthy male volunteers [2]) | Cases of phlebitis (healthy male volunteers [2]) | Number of adverse events (AEs) (healthy male volunteers [2]) | Tolerability of single dose (healthy male volunteers [2]) | t1/2 [3] | AUCins.0‐t [4] | Cins.max ([4]; single s.c. 0.3 IU/kg) | tmax ([4]; single s.c. 0.3 IU/kg) | AUCins.0‐∞ ([4]; single s.c. 0.3 IU/kg) | t1/2 ([4]; single s.c. 0.3 IU/kg)
insulin aspart [GP‐Asp] | 43.48 (12.43) mg/kg × 60 min | 11.21 (3.43) mg/kg/min | 0.48 (0.21) | 2.75 (0.94) | One | one | two | well tolerated | 0.88 (0.31) h | 750.86 (163.48) μLU/mL × h | 286.95 (86.53) μLU/ml/mL | 1.51 (0.53) h | 776.90 (166.33) μLU/ml/mL × h | –
insulin aspart [Novo‐Asp] | 42.81 (13.28) mg/kg × 60 min | 10.65 (3.3) mg/kg/min | 0.44 (0.18) | 2.82 (1.02) | One | one | two | well tolerated | – | 716.37 (199.60) μLU/mL × h | 245.58 (72.70) μLU/ml/mL | 1.37 (0.49) h | 745.70 (209.72) μLU/ml/mL × h | 0.93 (0.36) h
